From patent publication US20230120677

Biological target: Clover-SNAP-25-mRuby2 FRET sensor (UniProt P60880)
UniProt P60880, sequence (P60880 whole entry, looked up): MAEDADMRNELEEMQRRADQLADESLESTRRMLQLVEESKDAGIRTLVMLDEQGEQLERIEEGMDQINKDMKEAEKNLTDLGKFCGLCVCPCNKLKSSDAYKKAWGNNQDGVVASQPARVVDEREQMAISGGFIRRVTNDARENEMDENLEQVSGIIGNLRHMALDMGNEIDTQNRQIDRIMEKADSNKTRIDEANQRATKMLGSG

In the case of “WT tALC (truncated wild-type BoNT/A-LC, residues 1-424)”, the % activity relative to WT tALC was 100% and the “dynamic range in FRET upon SNAP-25 cleavage” value was 6-fold emission ratio in 30 minutes.
